{"source": "patent US4753882A", "about": "“Urease and process for preparation thereof” (Sapporo Breweries Limited, priority 1986, dated 1988)", "proteins": {"B1": {"name": "urease (EC 3.5.1.5) from Bacillus sp. Strain TB-90 (FERM BP-795) (Bacillus sp. TB-90) (protein)", "chain": "MSFSMSRKQYADMFGPTVGDAIRLADSELFIEIEKDYTTYGDEVKFGGGKVIRDGMGQHPLATSDECVDLVLTNAIIVDYTGIYKADIGIKDGMIASIGKAGNPLLMDGVDMVIGAATEVIAAEGMIVTAGGIDAHIHFICPQQIETALASGVTTMIGGGTGPATGTNATTCTPGPWNIHRMLQAAEEFPINLGFLGKGNCSDEAPLKEQIEAGAVGLKLHEDWGSTAAAIDTCLKVADRYDVQVAIHTDTLNEGGFVEDTLKAIDGRVIHTYHTEGAGGGHAPDIIKAAGFPNILPSSTNPTRPYTINTLEEHLDMLMVCHHLDANIPEDIAFADSRIRKETIAAEDVLHDLGVFSMISSDSQAMGRVGEVIIRTWQTADKMKKQRGKLQEDNGVGDNFRVKRYIAKYTINPAIAHGIADYVGSVEVGKLADLVVWNPAFFGVKPELVLKGGMIAYSTMGDPNASIPTPQPVLYRPMFAAKGDAKYQTSITFVSKAAYEKGIHEQLGLKKKVKPVHGIRKLTKKDLILNDKTPKIDVDPQTYEVKVDGQLVTCEPAEIVPMAQRYFLF"}}, "substrate": "NC(N)=O", "assay": "Km determination of urease by the GlDH method", "format": "biochemical, Bacillus sp. TB-90", "settings": "other: GlDH method, 40 mM Tris-HCl buffer pH 8.0, 37° C.", "description": "A reaction solution consisting of 100 millimoles (mM) of urea, 40 mM of Tris-HCl buffer (pH 8.0), 0.86 mM of α-ketoglutaric acid, 0.31 mM of NADPH and 17.2 unit per milliliter (U/ml) of glutamate dehydrogenase (GlDH) was maintained at 37° C. Then an enzyme solution to be measured was added to the reaction solution to initiate the reaction, and a rate of decrease in absorbance at 37° C., E340 nm, was measured. All the concentrations are indicated in their final concentrations. A rate of decrease in NADPH was calculated from the rate of decrease in absorbance E340 nm, and the amount of ammonia formed by the action of urease was calculated from the rate of decrease in absorbance E340 nm.\nIn connection with enzyme activity, an amount of the enzyme forming 2 micromoles (μmole) of ammonia per minute was defined as one unit (1 U). This definition was calculated based on experiments carried out under the conditions described in the aforementioned GlDH method.\nThe Km value as determined under the conditions of the aforementioned GlDH method was about 0.3 mM for urea.", "data": [{"protein": "B1", "values": [{"measurement": "Km", "result": 300, "unit": "µM"}]}]}
